Measured values as given in the supplement of paper PMC10567573.
± gives the standard deviation.

Assay: protein stability index of a GFP-peptide fusion (GPS, HEK-293T) (PSI 1-6); higher = more stable
[1] = treatment: DMSO, c terminus: a fixed tail appended
[2] = treatment: MLN4924 1 uM, 8 h, c terminus: a fixed tail appended
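Further: 24-mer peptide tiles fused after GFP, lentivirally expressed, FACS-sorted into six equal bins by GFP/DsRed ratio, decoded by Illumina sequencing, PSI is the read-weighted mean bin number.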

| Sequence | protein stability index [1] | protein stability index [2] | protein stability index (treatment: DMSO, c terminus: native) | protein stability index (treatment: MLN4924 1 uM, 8 h, c terminus: native) |
| --- | --- | --- | --- | --- |
| GRAVDQDKVLRFAQQIRLHHFNSS [MYORG] | 2.51 ± 0.27 | 2.75 ± 0.34 |  |  |
| GRGGEPRAYFMSDTREEKRFLGEG [CHGB] | 4.23 ± 0.2 | 4.44 ± 0.27 |  |  |
| GRLPRIPQVLSQEFTELLKVMIHP [WEE1] | 2.48 ± 0.53 | 2.47 ± 0.45 |  |  |
| GSGQRVPALEEAPDSHQKRPQHSH [ELOA2] | 5.26 ± 0.17 | 5.29 ± 0.33 |  |  |
| GSKGEKDLGASSLHVNGESLEMDS [EHMT1] | 5.28 ± 0.26 | 5.39 ± 0.27 |  |  |
| GSSGPAGLTLGRSFSNYRPFEPQA [SEPHS2] | 3.22 ± 0.12 | 3.28 ± 0.16 |  |  |
| GSSNVGINRWRFLLQCLEDLDANL [CRY1] | 2.48 ± 0.52 | 2.4 ± 0.13 |  |  |
| GTLNREDLSRLVNCLTGEGEDTRL [CIB1] | 4.25 ± 0.32 | 4.48 ± 0.31 |  |  |
| GTSTWQFNFKFNLTEDMYAQDSIE [CNOT7] | 2.4 ± 0.2 | 2.59 ± 0.28 |  |  |
| GVGAVPGPGTPTGPSLPSKRESPG [ZBTB22] | 5.41 ± 0.29 | 5.21 ± 0.14 |  |  |
| GVGGAERLVLDAALALQARGCSVK [ALG2] | 3.22 ± 0.24 | 3.28 ± 0.48 |  |  |
| GVGKAIEEELQEIASEPTNKHLFY [MATN2] | 4.75 ± 0.37 | 4.46 ± 0.11 |  |  |
| GVSRGVGFIRFDKRIEAEEAIKGL [ELAVL3] | 3.572 ± 0.035 | 4.05 ± 0.57 |  |  |
| GYSTPADIWSTACMAFELATGDYL [SRPK2] | 2.1 ± 0.33 | 2.54 ± 0.5 |  |  |
| GYVANSSNCISGVCSVRGGEGRSR [KRT71] | 3.47 ± 0.2 | 3.73 ± 0.43 |  |  |
| HAAASNGQINVVKHLLNLGVEIDE [ANKRD44] | 4.06 ± 0.35 | 4.16 ± 0.25 |  |  |
| HCAAVTPAGCMYIHGGVVNIHENK [KLHDC10] | 2.86 ± 0.098 | 3.12 ± 0.49 |  |  |
| HFKKQTIYRFLKLHPRGKNNFSPL [FEM1C] | 2.71 ± 0.32 | 1.96 ± 0.14 |  |  |
| HGVDLSALRGAAVDEYFRQPVVDT [CARM1] | 4.13 ± 0.41 | 4.29 ± 0.56 |  |  |
| HIDSSCSSFIKTEPSSPASLTDSV [ESRRG] | 4.29 ± 0.18 | 4.23 ± 0.2 |  |  |
| HIENGPFSLEQQLDDEDDDEEDCP [SRPK2] | 5.44 ± 0.4 | 5.46 ± 0.2 |  |  |
| HLAPSEAKAADSPTRNDLESGLGH | 5.14 ± 0.34 | 5.37 ± 0.058 |  |  |

| Sequence | protein stability index [1] | protein stability index [2] | protein stability index (treatment: DMSO, c terminus: native) | protein stability index (treatment: MLN4924 1 uM, 8 h, c terminus: native) |
| --- | --- | --- | --- | --- |
| HLMPFRQHCRQSLASRIRSNKKML [KLHL14] | 2.39 ± 0.11 | 2.34 ± 0.1 |  |  |
| HLPADSEVTLEANPTSAPGSRLAE [RSAD1] | 5.49 ± 0.077 | 5.39 ± 0.24 |  |  |
| HLRPELRSQMQGPRTRARLGANEV [KLHL12] | 4.23 ± 0.043 | 4.22 ± 0.44 |  |  |
| HMLNQVESKVKDILSKVQKNHVGK [FAM98B] | 2.55 ± 0.51 | 2.36 ± 0.32 |  |  |
| HPKPKLVRVLESLLVSLVTTVVVF [CLCN6] | 3.49 ± 0.47 | 3.56 ± 0.25 |  |  |
| HPMYRRLVHSAVDVPTIQEKVNEG [ZMYND11] | 4.11 ± 0.36 | 4.3 ± 0.17 |  |  |
| HQRTHSEEETYKCLECGKSFCHGS [ZNF449] | 4.63 ± 0.3 | 4.59 ± 0.3 |  |  |
| HRGCGDGCCCPSCYRRYRFTGFY [KRTAP19-2] |  |  | 2.83 ± 0.59 | 3.31 ± 0.47 |
| HTLPVNRETLKRKVSGNRCASPVT [ESR2] | 4.07 ± 0.14 | 4.24 ± 0.15 |  |  |
| HVLHHGTGKWYELQDLQVTDILPQ [USP39] | 2.82 ± 0.4 | 2.95 ± 0.39 |  |  |
| HVSDEDNNADLCLTDDKQVLNTQG [DLC1] | 5.34 ± 0.23 | 5.46 ± 0.13 |  |  |
| ICFCCEEFQPAKCTDKENALKLFP [FAM189A2] | 2.37 ± 0.036 | 2.58 ± 0.25 |  |  |
| ICGLQQDEEVSSLTCDALTELLAK [CCND2] | 3.48 ± 0.29 | 3.74 ± 0.36 |  |  |
| IDCGKAFSQKSCLVAHQRYHTGKT [ZNF649] | 2.83 ± 0.24 | 2.87 ± 0.16 |  |  |
| IDKKPVSEKTDESDTIPYLKKFLY [MIA2] | 2.83 ± 0.57 | 2.95 ± 0.4 |  |  |
| IDSYDPSTGEVYCRVPNSGKDEIE [ALDH8A1] | 4.97 ± 0.2 | 4.92 ± 0.2 |  |  |
| IEDAAEPKEPAPPNGSAAEPPTEA [PALM] | 5.54 ± 0.24 | 5.47 ± 0.22 |  |  |
| IEDFQQKILLTKSENARLVLQIDN [KRT36] | 2.79 ± 0.25 | 2.8 ± 0.23 |  |  |
| IEEDMNNSIAHYRQVNIRTANCTT [KCNA1] | 3.71 ± 0.55 | 3.57 ± 0.48 |  |  |
| IEENITSAAPSNDQDGEYCPEVKL [SRPK2] | 5.5 ± 0.17 | 5.49 ± 0.28 |  |  |
| IESKIPLNMEEPPVEEPEPKPDRL [SLC19A2] | 5.36 ± 0.24 | 5.57 ± 0.12 |  |  |
| IETSALDSTNVEAAFQTILTEIYR [RAB11A] | 2.35 ± 0.074 | 2.44 ± 0.44 |  |  |

| Sequence | protein stability index [1] | protein stability index [2] | protein stability index (treatment: DMSO, c terminus: native) | protein stability index (treatment: MLN4924 1 uM, 8 h, c terminus: native) |
| --- | --- | --- | --- | --- |
| IFEDRIRGIDIIKWMERYLRDKTV [TRAF3IP2] | 2.02 ± 0.56 | 1.99 ± 0.23 |  |  |
| IFQEQQKKWQQYRSVRRERLKEMK [FAM9B] | 3.22 ± 0.29 | 3.22 ± 0.39 |  |  |
| IGALTYFAQADALKGTLVSTLKEV [ACSBG2] | 2.21 ± 0.41 | 2.25 ± 0.56 |  |  |
| IGYVHIYLKGQREKSEKINAMLKG [GOSR1] | 2.21 ± 0.14 | 2.67 ± 0.17 |  |  |
| IICEAHKVLGNRWAEIAKMLPGRT [MYBL2] | 2.25 ± 0.099 | 2.2 ± 0.16 |  |  |
| IIDYLEQTFLDERTPRLMPDKESM [GDAP1] | 2.6 ± 0.27 | 2.82 ± 0.28 |  |  |
| IKLREYEAALNSKDAALATALGDK [LMNB1] | 4.076 ± 0.039 | 4.38 ± 0.15 |  |  |
| IKSVLWQTLQALNFCHIHNCIHRD [CDKL4] | 3.15 ± 0.99 | 2.99 ± 0.72 |  |  |
| ILIQHQKAKHFKCHICHKKLYTGP [ZNF207] | 2.44 ± 0.12 | 1.88 ± 0.38 |  |  |
| ILVYDIANRWSFEGMDRWIKKIEE [RAB40A] | 2.43 ± 0.38 | 2.34 ± 0.16 |  |  |
| INVGGIKYSLPWTTLDEFPLTRLG [KCNG1] | 2.17 ± 0.6 | 2.06 ± 0.13 |  |  |
| IPERLSIFCRDTQTVFQKKNLQQT [IQUB] | 2.87 ± 0.19 | 2.98 ± 0.51 |  |  |
| IPPPLSSVYAWGGGLGTPLRLPML [NEK8] | 2.32 ± 0.087 | 2.32 ± 0.034 |  |  |
| IQEAQSAWKDDFALNSMLRRRFRE [YJU2B] | 3.53 ± 0.14 | 3.69 ± 0.25 |  |  |
| IQFATPNDFCSFYNILKTCRGHTL [CARM1] | 2.47 ± 0.41 | 2.24 ± 0.22 |  |  |
| IQQGINAVNQEAMNNAQRIEKWVI [ACSBG2] | 2.89 ± 0.44 | 2.94 ± 0.51 |  |  |
| IQVVLNGMESYQEVTVQRNCCLTL [ZER1] | 3.21 ± 0.47 | 3.01 ± 0.73 |  |  |
| IRCVYILDPWFAGSSNVGINRWRF [CRY1] | 3.13 ± 0.51 | 3.06 ± 0.51 |  |  |
| IRDFEARKCPVHGKTMELFCQTDQ [TRIM29] | 3.54 ± 0.28 | 3.76 ± 0.28 |  |  |
| IRIKLDPCHPTVKNWRNFASKWGM [EDARADD] | 3.28 ± 0.61 | 2.58 ± 0.76 |  |  |
| IRPDPRSRVTDPVGDIVSFMHSFE [FAF2] | 3.06 ± 0.42 | 3.09 ± 0.33 |  |  |
